Experimental data published in US20120135472.

Molecular target: T1, small fragment of Nanoarchaeum equitans DNA polymerase (Neq S)
T1 chain: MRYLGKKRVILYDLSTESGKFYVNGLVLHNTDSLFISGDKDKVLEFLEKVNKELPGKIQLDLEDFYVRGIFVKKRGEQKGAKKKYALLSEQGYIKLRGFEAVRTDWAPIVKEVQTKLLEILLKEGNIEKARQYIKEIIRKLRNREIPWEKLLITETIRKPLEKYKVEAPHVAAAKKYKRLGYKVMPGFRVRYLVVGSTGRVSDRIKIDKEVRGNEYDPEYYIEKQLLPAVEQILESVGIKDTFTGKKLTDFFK

B1: large fragment of Nanoarchaeum equitans DNA polymerase (Neq L) (protein)
chain: MLHQLPTMVVEEKAVKEEEGYSVLKCYWINIENTPLDEVILIGKDENNRACEVIIPYKWYFYFEGDIKDLEEFANNKKIKIEYTKEQKKYIEKPKDVYKVYVLHKHYPILKEFIKEKGYKKYETDINVYRKFLIDKGIEPFEWFEVEGKILLSTSNKVRIKAQSIKRLYEKTKPSVLAFDIEVYSEAFPNPEKDKIISIALYGDNYEGVISYKGEPTIKVNTEYELIEKFVEIIESLKPDIIVTYNGDNFDIDFLVKRASLYNIRLPIKLVNKKEPTYNFRESAHVDLYKTITTIYKTQLSTQTYSLNEVAKEILGEEKIYDYENMLYDWAIGNYNKVFEYNLKDAELTYKLFKYYENDLLELARLVNQPLFDVSRFSYSNIVEWYLIKKSRKYNEIVPNKPKMEEVERRKLNTYAGAFVYEPKPGLYENLAVLDFASLYPSIILEHNVSPGTIYCEHDDCKQNGVEAIINNEKKYVWFCKKVKGFIPTVLEHLYTKRLELKRKLKELDRDSEEYKIINAKQAVLKIIINATYGYMGFPNARWYCIDCAAAVAAWGRKYINYILKRAEEEGFKVIYGDSIMDTEIEVIENGIKKKEKLSDLFNKYYAGFQIGEKHYAFPPDLYVYDGERWVKVYSIIKHETETDLYEINGITLSANHLVLSKGNWVKAKEYENKNN
  activity of DNA polymerase (3H-dTTP incorporation, relative to 20 pmoles of Neq P = 100%): The activity of DNA polymerase of the solution was very low after the protein trans-splicing of Neq L and Neq S at 60° C., but was maximized at 95 °C
